The values below come from IntAct's records for PubMed 32296183.

B1: Catenin alpha-3 (Homo sapiens), Q9UI47-2 (parent)
chain: MSAETPITLNIDPQDLQVQTFTVEKLLEPLIIQVTTLVNCPQNPSSRKKGRSKRASVLLASVEEATWNLLDKGEKIAQEATVLKDELTASLEEVRKESEALKVSAERFTDDPCFLPKREAVVQAARALLAAVTRLLILADMIDVMCLLQHVSAFQRTFESLKNVANKSDLQKTYQKLGKELENLDYLAFKRQQDLKSPNQRDEIAGARASLKENSPLLHSICSACLEHSDVASLKASKDTVCEEIQNALNVISNASQGIQNMTTPPEPQAATLGSALDELENLIVLNPLTVTEEEIRPSLEKRLEAIISGAALLADSSCTRDLHRERIIAECNAIRQALQDLLSEYMNNAGKKERSNTLNIALDNMCKKTRDLRRQLRKAIIDHVSDSFLDTTVPLLVLIEAAKNGREKEIKEYAAIFHEHTSRLVEVANLACSMSTNEDGIKIVKIAANHLETLCPQIINAALALAARPKSQAVKNTMEMYKRTWENHIHVLTEAVDDITSIDDFLAVSGMFLFF
partner: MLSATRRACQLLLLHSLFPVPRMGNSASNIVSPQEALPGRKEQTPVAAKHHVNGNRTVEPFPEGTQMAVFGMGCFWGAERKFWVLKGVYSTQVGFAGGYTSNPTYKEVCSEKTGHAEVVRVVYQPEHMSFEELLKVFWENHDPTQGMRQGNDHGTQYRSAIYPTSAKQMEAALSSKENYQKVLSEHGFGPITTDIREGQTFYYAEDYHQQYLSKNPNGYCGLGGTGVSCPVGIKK
B2: Catenin alpha-3 (Homo sapiens), Q9UI47-2 (parent)
chain: B1 chain
partner: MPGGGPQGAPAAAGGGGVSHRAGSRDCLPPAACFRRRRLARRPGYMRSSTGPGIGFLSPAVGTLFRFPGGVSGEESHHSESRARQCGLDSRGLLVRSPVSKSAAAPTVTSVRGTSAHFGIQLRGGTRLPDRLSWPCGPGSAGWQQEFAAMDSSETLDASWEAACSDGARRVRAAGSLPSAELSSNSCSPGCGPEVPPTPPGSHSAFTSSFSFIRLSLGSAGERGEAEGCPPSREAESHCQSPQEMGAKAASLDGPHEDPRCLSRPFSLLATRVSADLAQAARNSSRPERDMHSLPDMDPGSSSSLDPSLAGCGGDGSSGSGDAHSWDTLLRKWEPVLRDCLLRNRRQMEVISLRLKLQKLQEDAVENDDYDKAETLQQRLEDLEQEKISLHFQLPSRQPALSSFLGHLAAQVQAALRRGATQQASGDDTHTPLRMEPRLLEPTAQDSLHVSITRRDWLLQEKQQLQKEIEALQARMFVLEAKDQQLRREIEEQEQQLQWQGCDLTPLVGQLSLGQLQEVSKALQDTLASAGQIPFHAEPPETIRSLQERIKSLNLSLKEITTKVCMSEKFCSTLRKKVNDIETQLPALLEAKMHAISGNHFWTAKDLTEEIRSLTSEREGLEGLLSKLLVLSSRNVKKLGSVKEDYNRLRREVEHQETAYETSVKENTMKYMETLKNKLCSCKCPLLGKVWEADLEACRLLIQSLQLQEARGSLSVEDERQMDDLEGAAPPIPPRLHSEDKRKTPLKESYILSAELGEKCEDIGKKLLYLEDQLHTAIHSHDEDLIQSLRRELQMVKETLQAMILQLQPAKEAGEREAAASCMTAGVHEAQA
B3: Transmembrane protein 43 (Homo sapiens), Q9BTV4 (parent)
chain: MAANYSSTSTRREHVKVKTSSQPGFLERLSETSGGMFVGLMAFLLSFYLIFTNEGRALKTATSLAEGLSLVVSPDSIHSVAPENEGRLVHIIGALRTSKLLSDPNYGVHLPAVKLRRHVEMYQWVETEESREYTEDGQVKKETRYSYNTEWRSEIINSKNFDREIGHKNPSAMAVESFMATAPFVQIGRFFLSSGLIDKVDNFKSLSLSKLEDPHVDIIRRGDFFYHSENPKYPEVGDLRVSFSYAGLSGDDPDLGPAHVVTVIARQRGDQLVPFSTKSGDTLLLLHHGDFSAEEVFHRELRSNSMKTWGLRAAGWMAMFMGLNLMTRILYTLVDWFPVFRDLVNIGLKAFAFCVATSLTLLTVAAGWLFYRPLWALLIAGLALVPILVARTRVPAKKLE
partner: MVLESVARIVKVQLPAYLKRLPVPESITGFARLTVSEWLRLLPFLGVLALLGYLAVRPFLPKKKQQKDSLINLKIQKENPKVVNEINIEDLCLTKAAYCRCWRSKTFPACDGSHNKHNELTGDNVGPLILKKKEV
B4: Golgi SNAP receptor complex member 2 (Homo sapiens), O14653 (parent)
chain: MDPLFQQTHKQVHEIQSCMGRLETADKQSVHIVENEIQASIDQIFSRLERLEILSSKEPPNKRQNARLRVDQLKYDVQHLQTALRNFQHRRHAREQQERQREELLSRTFTTNDSDTTIPMDESLQFNSSLQKVHNGMDDLILDGHNILDGLRTQRLTLKGTQKKILDIANMLGLSNTVMRLIEKRAFQDKYFMIGGMLLTCVVMFLVVQYLT
partner: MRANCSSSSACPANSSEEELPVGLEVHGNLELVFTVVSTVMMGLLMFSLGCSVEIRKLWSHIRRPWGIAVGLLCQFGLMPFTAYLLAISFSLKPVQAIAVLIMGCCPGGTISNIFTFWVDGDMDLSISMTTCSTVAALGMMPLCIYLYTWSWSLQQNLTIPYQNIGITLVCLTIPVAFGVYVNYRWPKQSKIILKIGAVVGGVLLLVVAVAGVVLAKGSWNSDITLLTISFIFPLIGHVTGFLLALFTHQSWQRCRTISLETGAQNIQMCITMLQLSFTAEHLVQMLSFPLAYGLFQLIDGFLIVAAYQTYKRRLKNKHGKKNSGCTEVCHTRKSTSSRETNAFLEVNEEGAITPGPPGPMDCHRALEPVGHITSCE
B5: Golgi SNAP receptor complex member 2 (Homo sapiens), O14653 (parent)
chain: B4 chain
partner: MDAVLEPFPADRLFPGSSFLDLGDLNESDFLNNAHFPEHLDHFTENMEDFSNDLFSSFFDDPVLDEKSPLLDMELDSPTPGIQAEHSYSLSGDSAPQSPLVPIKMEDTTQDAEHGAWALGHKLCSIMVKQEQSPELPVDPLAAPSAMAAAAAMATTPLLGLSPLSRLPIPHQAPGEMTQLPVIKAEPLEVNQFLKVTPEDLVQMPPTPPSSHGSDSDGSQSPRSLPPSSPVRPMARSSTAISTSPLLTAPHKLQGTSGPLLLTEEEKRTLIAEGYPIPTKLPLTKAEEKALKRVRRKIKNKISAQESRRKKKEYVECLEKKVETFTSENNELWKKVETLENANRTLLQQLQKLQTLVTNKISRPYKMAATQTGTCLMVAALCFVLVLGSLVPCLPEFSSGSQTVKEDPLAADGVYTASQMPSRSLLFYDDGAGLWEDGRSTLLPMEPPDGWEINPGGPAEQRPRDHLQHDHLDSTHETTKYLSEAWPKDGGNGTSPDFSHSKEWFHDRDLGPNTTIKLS
B6: Dolichol kinase (Homo sapiens), Q9UPQ8 (parent)
chain: MTRECPSPAPGPGAPLSGSVLAEAAVVFAVVLSIHATVWDRYSWCAVALAVQAFYVQYKWDRLLQQGSAVFQFRMSANSGLLPASMVMPLLGLVMKERCQTAGNPFFERFGIVVAATGMAVALFSSVLALGITRPVPTNTCVILGLAGGVIIYIMKHSLSVGEVIEVLEVLLIFVYLNMILLYLLPRCFTPGEALLVLGGISFVLNQLIKRSLTLVESQGDPVDFFLLVVVVGMVLMGIFFSTLFVFMDSGTWASSIFFHLMTCVLSLGVVLPWLHRLIRRNPLLWLLQFLFQTDTRIYLLAYWSLLATLACLVVLYQNAKRSSSESKKHQAPTIARKYFHLIVVATYIPGIIFDRPLLYVAATVCLAVFIFLEYVRYFRIKPLGHTLRSFLSLFLDERDSGPLILTHIYLLLGMSLPIWLIPRPCTQKGSLGGARALVPYAGVLAVGVGDTVASIFGSTMGEIRWPGTKKTFEGTMTSIFAQIISVALILIFDSGVDLNYSYAWILGSISTVSLLEAYTTQIDNLLLPLYLLILLMA
partner: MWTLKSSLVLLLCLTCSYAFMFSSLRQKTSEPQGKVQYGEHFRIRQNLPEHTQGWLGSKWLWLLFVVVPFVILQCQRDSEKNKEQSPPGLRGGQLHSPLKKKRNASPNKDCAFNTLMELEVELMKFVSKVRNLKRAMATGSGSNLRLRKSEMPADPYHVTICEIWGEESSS
B7: Golgi SNAP receptor complex member 2 (Homo sapiens), O14653 (parent)
chain: B4 chain
partner: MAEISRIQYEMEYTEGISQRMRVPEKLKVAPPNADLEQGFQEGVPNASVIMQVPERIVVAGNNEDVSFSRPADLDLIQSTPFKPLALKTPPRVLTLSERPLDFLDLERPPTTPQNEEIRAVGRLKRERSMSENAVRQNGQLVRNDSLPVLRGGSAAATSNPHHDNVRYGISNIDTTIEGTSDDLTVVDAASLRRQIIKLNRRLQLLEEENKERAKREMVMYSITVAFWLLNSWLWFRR

The variants in one test derive from B1. To be noted: with msra_human MSRA.
In the case of V94D, the “effect of a mutation on the interaction” value is on record as “with no effect”.

Variants of B2 are the subject of another test. To be noted: with DISC1, Q9NRI5-2.
Consider V94D, for which the “effect of a mutation on the interaction” value is “disrupting interaction strength”.

Variants of B3 are the subject of the next test. To be noted: with cisd2_human CISD2, Q8N5K1.
On to I91V, for which the “effect of a mutation on the interaction” value is “with no effect”. E142K: the “effect of a mutation on the interaction” value is listed as “disrupting interaction strength”. For E85K, the “effect of a mutation on the interaction” value is given as “disrupting interaction strength”. As for R28W, the “effect of a mutation on the interaction” value is recorded as “with no effect”. Y371H: the “effect of a mutation on the interaction” value is reported as “with no effect”.

Variants of B4 are the subject of the next test. As to conditions: with soat_human SLC10A6, Q3KNW5.
As for G144W, the “effect of a mutation on the interaction” value is reported as “with no effect”.

In the next test the parent is B5. As to conditions: with cr3l1_human CREB3L1, Q96BA8.
Take G144W: the “effect of a mutation on the interaction” value is “with no effect”.

A further test covers variants of B6. To be noted: with FAM209A.
In the case of Y441S, the “effect of a mutation on the interaction” value is “disrupting interaction strength”.

Variants of B7 are the subject of another test. To be noted: with MFF.
Take G144W: the “effect of a mutation on the interaction” value is recorded as “disrupting interaction strength”.
